How the values were obtained:
[1] = target: tubulin (microtubules) (human (endogenous in HeLa)) (UniProt P68363)
[2] = target: tubulin (microtubules) (human (endogenous in HeLa)) (UniProt P68363); assay: FRAP; live HeLa cells expressing the CST, 37°C, 5% CO2; EYFP bleached in a circular ROI of 2 μm radius in the cytoplasm; recovery curves fitted by a two-phase exponential association function; the phase with lower mobility is named MTs-bound fraction

Sequence of UniProt P68363 (P68363 whole entry, chain 1 of 2): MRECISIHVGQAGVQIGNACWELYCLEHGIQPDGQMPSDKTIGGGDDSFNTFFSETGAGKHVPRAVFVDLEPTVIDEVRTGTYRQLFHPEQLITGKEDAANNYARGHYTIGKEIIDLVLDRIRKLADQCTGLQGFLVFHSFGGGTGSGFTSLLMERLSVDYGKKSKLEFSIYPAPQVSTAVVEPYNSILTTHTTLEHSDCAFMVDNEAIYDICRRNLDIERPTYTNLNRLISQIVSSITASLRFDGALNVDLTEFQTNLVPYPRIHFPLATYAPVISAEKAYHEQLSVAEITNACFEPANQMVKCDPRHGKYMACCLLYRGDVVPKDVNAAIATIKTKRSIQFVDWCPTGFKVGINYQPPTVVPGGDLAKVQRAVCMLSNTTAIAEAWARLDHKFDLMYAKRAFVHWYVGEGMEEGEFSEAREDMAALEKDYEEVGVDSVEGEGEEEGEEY
Sequence of UniProt P68363 (P07437 whole entry, chain 2 of 2, further chain): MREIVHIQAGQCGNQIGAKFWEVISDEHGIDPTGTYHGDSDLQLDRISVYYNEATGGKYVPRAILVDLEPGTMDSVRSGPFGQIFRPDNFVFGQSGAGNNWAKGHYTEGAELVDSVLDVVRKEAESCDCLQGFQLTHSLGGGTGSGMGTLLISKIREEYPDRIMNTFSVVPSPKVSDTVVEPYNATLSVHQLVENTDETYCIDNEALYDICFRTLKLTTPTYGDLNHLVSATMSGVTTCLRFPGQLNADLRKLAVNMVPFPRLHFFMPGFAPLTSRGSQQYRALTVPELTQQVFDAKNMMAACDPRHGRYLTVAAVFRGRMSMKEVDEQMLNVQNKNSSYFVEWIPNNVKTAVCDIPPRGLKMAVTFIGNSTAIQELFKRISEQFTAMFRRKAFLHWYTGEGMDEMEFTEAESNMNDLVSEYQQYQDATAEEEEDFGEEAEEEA

Row | FRAP mobile fraction (Mob calc) in live HeLa cells [1] [%] | MTs-bound fraction [2] [%] | Substance
1 | 79 |  | Conformational Sensitive Tau with the Q336H mutation (CST^Q336H) (from UniProt P10636-8 1-441) (natural protein)
2 |  | 61 | Conformational Sensitive Tau, wild type (CST^WT) (from UniProt P10636-8 1-441) (natural protein)
